Results published in PMC8791620 (Science Advances, 2022).

T1: Trs120 (3xFLAG-tagged, subunit of TRAPPII) (S. cerevisiae, UniProt Q04183 1-1289)
T1 sequence: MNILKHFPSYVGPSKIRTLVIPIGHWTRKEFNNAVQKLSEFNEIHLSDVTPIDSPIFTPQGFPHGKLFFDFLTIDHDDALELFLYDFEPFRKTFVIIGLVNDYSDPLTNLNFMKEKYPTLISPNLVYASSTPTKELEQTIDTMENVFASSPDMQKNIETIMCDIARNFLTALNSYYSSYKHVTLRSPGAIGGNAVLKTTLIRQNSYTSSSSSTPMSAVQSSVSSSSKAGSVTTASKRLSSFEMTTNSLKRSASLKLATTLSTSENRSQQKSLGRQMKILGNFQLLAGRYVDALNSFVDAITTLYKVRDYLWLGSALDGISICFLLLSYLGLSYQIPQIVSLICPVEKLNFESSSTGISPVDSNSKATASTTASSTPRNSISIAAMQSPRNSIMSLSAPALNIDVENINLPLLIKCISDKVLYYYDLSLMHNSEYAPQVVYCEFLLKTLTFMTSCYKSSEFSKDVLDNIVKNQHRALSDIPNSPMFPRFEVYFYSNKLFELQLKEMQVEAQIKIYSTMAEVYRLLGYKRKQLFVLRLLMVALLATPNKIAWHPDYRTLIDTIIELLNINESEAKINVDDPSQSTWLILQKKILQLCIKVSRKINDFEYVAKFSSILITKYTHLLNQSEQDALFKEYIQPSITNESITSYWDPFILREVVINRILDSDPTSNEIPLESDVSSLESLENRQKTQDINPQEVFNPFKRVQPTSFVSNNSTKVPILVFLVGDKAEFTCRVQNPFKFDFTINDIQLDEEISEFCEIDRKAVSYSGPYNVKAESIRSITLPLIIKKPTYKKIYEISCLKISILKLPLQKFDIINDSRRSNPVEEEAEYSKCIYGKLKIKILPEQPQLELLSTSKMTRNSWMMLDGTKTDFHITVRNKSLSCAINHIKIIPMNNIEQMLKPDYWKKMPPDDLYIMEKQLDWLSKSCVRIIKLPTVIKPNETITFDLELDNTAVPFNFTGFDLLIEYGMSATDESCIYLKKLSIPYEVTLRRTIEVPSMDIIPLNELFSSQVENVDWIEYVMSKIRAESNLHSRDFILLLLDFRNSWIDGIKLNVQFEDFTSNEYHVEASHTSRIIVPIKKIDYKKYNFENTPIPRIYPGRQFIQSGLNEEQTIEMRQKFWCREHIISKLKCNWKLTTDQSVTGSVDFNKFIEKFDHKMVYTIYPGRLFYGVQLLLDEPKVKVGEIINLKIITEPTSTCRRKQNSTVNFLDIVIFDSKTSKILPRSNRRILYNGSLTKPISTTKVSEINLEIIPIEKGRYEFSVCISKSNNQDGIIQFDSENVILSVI

T2: Trs23 (subunit of core TRAPP/TRAPPI in TRAPPII) (S. cerevisiae, UniProt Q03784 1-219)
T2 sequence (looked up): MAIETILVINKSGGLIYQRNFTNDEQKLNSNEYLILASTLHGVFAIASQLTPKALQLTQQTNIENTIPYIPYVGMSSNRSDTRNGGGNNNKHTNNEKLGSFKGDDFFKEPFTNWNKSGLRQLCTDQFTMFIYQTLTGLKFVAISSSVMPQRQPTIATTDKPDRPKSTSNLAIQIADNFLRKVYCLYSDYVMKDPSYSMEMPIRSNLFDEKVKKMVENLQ

T3: Bet3 (subunit of core TRAPP/TRAPPI in TRAPPII) (S. cerevisiae, UniProt P36149 1-193)
T3 sequence (looked up): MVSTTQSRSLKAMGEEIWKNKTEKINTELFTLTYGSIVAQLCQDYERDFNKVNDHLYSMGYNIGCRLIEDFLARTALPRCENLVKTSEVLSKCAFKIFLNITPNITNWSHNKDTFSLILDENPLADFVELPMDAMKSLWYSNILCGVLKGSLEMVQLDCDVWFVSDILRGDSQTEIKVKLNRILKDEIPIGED

B1: His-sumo-Ypt32 (wild type) (enzyme, S. cerevisiae, UniProt P51996 1-222, looked up)
chain: MSNEDYGYDYDYLFKIVLIGDSGVGKSNLLSRFTTDEFNIESKSTIGVEFATRTIEVENKKIKAQIWDTAGQERYRAITSAYYRGAVGALIVYDISKSSSYENCNHWLTELRENADDNVAVGLIGNKSDLAHLRAVPTDEAKNFAMENQMLFTETSALNSDNVDKAFRELIVAIFQMVSKHQVDLSGSGTNNMGSNGAPKGPTISLTPAPKEDKKKKSSNCC
B2: Trs31 (subunit of core TRAPP/TRAPPI in TRAPPII) (natural protein, S. cerevisiae, UniProt Q03337 1-283, looked up)
chain: MSQRIIQPSASDQQFPGKSDGYEYTVGPKQAITSEASTTYIPSRIYSESLLFKRQEASLSAMAFLFQEMISQLHRTCKTAGDFETKLSDYGHNIGIRLLELLNFRASVSPSSLPRASAFLSQNESSSKLSNASNSPGMLANSSTATSASANERLQEKQTESLSNYITKMRRRDLKILDILQFIHGTLWSYLFNHVSDDLVKSSERDNEYMIVDNFPTLTQFIPGENVSCEYFVCGIIKGFLFNAGFPCGVTAHRMPQGGHSQRTVYLIQFDRQVLDREGLRFG
B3: Bet5 (subunit of core TRAPP/TRAPPI in TRAPPII) (natural protein, S. cerevisiae, UniProt Q03630 1-159, looked up)
chain: MGIYSFWIFDRHCNCIFDREWTLASNSASGTINSKQNEEDAKLLYGMIFSLRSITQKLSKGSVKNDIRSISTGKYRVHTYCTASGLWFVLLSDFKQQSYTQVLQYIYSHIYVKYVSNNLLSPYDFAENENEMRGQGTRKITNRNFISVLESFLAPMVNQ

Key:
[1] = biological target: B2; assay: cryo-EM structure
[2] = biological target: T1, Trs120 (3xFLAG-tagged, subunit of …); assay: cross-linking
[3] = biological target: T2, Trs23 (subunit of core TRAPP/TRAPPI in …); assay: cryo-EM structure
[4] = biological target: T3, Bet3 (subunit of core TRAPP/TRAPPI in …); assay: cryo-EM structure

B1: binds [1].

B2: binds [2].

B3: binds [3]; binds [4].
